Source: the DeepSol protein solubility set

Test: soluble on expression in E. coli; label from the status in PepcDB or PDB records

Sequence | soluble on expression in E. coli
MDDLRIEYDAPNDVYFPGQAVTGKVIIQNREWIKARFLKICIHGGAHTHWSESRSTYRTNTRGERERFTENVNYNATINYLTGESIAWQSRDGTDRLPAGTNVFPFAFNLPINCAPSFEGCHGHIRYDVHVELDRPWKFNKKSRKCFSVIPVFDLNITPTAINPMVNTASKNTGLILKKGLVTITVNLPKRGYVAGEIMPITVNIDNGSKVAVSEVSAKMTQLSHFHASHGNMIGVTAHTHNRNDEKLVAESRRVADVPAKSRGQMVLSMKIPAIVPSFNCPIIAVDYCLTVKVSTQQIFGGGLKCEFPLIIGTIPIRQMNQAAPGAMPTMPSVSAPPYPVVAGASASQAVYPTAPSAPPASPGGEAPPSYEESVHGAGKVEDAEAFAPRYPVYNNLPQQQNSQLPPEYAPPLPAKSGF | not soluble
MAHAAAVEENQLQSLKDVAKQAPVHRKLDIQEWKTAEGAKVLFVEAHELPMFDLRLTFAAGSSQDAGTPGLSMLTNAMLNEGVPGKDTTAIAAGFEDLGASFSNGSYRDMAVAGLRSLSEADKRTQALKLFEQVIGQPTFPEDALARIKNQVLAGFEYQKQNPGKLAGLELFKRLYGEHPYAHSSDGDEKSVPTISREQLQAFHKKAYAAGNVVIALVGDLSRQEAEAIAAEVSKALPQGPALAKTVQPETPKPGLTHIDFPSEQTHLMLAQLGIDRQDPDYAALYLGNQILGGGGFGTRLMDQVREKRGLTYGIYSGFTAMQARGPFMINFQTRAELSEGALKLVQDIVRDYLANGPTQKELDDAKRELAGSFPLSTASNADIVGQLGAIGFYGLPLDYLESFLKQVEGLSVEQVRTAMAKHLDADAFVIVSAGPSVPQKLEHHHHHH | not soluble
MGSDKIHHHHHHVFAGFDYGSANCAMAVCEGDSVRLLPIGDSGGQYLMSVVYALDVSFITEAVCQRLPDNQARALVQKRGAELARARRMRQELDLTATDDTVFIGEAALKAYLDTPEEGFFVRSPKSFLGATGLRPEQVALFEDIVTLMMLEVKGRADALLQNPVTHAVIGRPVNFQGIGGEEANIQAQSILQIAAMRAGFTQVSFLFEPLAAAFDFESSLEADKRVLVVDVGGGTTDCSLVTMGPNKRSQTERSEDCLGHSGQRIGGNDLDIALAMECLMPHYGLGDMLSTGKPMPRQMFWQAVAINDVGAQRDFFSLSYATAIKELRKDAINPDALDRLARLRRDQQHCQLVKLAELAKIDLSGEELTQVEHPDGAHTSVAADAFGLAIAPLVQRIGELMRAAVGDESSPDLIYVTGGSSRCPQVASSIAAVYPGVEVVQGDSFGSVTAGLARRAALEFA | not soluble
EVKLEESGGGLVQPGGSMKLSCAASGFTFSDAWMDWVRQSPEKGLEWVAEIRSKVNNHAIHYAESVKGRFTVSRDDSKSSVYLQMNSLRAEDTGIYYCSGWSFLYWGQGTLVTVSAAKTTPPSVYPLAPGSAAQTNSMVTLGCLVKGYFPEPVTVTWNSGSLSSGVHTFPAVLQSDLYTLSSSVTVPSSTWPSETVTCNVAHPASSTKVDKKIVPRD | soluble
GMSDHVCQEGCRHHSHGEDSPEIQQEFQEGRRDFMRDFAVGGVLASAASLGISSSAFGQTMPKTGLTSGHATHYYIPASDKTVSWGFFSKSLKPVVELESGDFATIETLTHHSNDDASLMVKGDPGAESVFYWDSKRKNVDRRGMGPMDHKLGAGGGMGVHILTGPVAIKGAEPGDVLEVRIVDVALRPSANPEFKGKTFGSNVAANWGFHYNELIEEPKKREVVTIYELDATGERNWARAFYNYRWTPQKDPFGVVHPIVDYPGVPVDHSTISKNYNVLKNIRVPVRPHFGTMGLAPKEADLVNSVPPSHFGGNIDNWRIGKGATMYYPVSVAGGLFSVGDPHASQGDSEMCGTAIECSLTGTFQFILHKKADLPGTPLADLQYPLLETQDEWVLHGFSYANYLAELGPDAQNSIFSKSSLDLALKDAFRKMRHFLMQTQNLTEDEAVSLMSIGVDFGITQVVDGNWGVHAVVKKGIFPGRDV | soluble
MGSDKIHHHHHHMLKLSVCLLTCNSARLLMEVLPPLLKVADECIVVDSGSTDETVAICQQFGLTVHHHAYKAHGAQMNYAIGLASHDWVLCMDSDEILDNDVVAAIQALKAGEEPEPTCAWRLPRYWFVLGKQVRTIYPISSPDYPVRLFNRQQARFNDRPVDDQVVGHASSVRLPGFVRHDTFYSLHEVFNKLNSYTTRLVKYQQIKPSLTRGIVSAIGAFFKWYLFSGAWRYGKVGVVTGLYATFYSFLKYFKAWYAHEDNQAPVAQKRTDP | not soluble
MGSDKIHHHHHHMLLGSFQSVLEARNRDEFRGEVVRFAKRLGFETVSAITVVDHPVGDTEFVAIDNAPDAYKDAIEDPKAGQLDPVMQHCKRQSVPIIWDQSTYVSAGQGSMWEAQARFGFRTGICLALHMPEGRHFVIGVDRDQALPKDRGEVTRLVADLQLFAVHAQDTAMRVLVPERLQLERPKLTPRELDSLRWTMDGKTAWEVGSIMGISERTAVLHINNAMHKLACTNKHQAVLKALRLGLLR | not soluble
PDGPTQLRALNLTEGFAVLHWKPPQNPVDTYDIQVTAPGAPPLQAETPGSAVDYPLHDLVLHTNYTATVRGLRGPNLTSPASITFTTGLEAPRDLEAKEVTP | soluble
MGSDKIHHHHHHMKTTFNLSRFYKACNPSYTLNISNVLDRQYYIDFADVRGCKIVEELQRTIVRISPDEPTCQLFTGHIGCGKSTELQRLKTELELAGFHVVYFESSQDLDMADIDISDILLSVARQVSASLEGINIKLKGGYFTNLFKEVGDFLQSPIELSGQAELSLGIAKITAKTKDSTQMRNQLRQYLEPRTNSILQAINEEILERAVEQLKLRGQKGLVVIVDNLDRVDMRPLASGRSQPEYLFIDRGEQLRRLKCHLVYTIPLTLIFSNEYETLKNRLGGGIAPKVLPMVLVRQRDGSDYEPGMSLVRQLVLARAFPEVSLNERLLLITELFDHSQTLDRICRVSGGHIRNLLGLLYSCLQRQDPPFSRECLEAVIKDYRDDLLLAIDESQWELLFEVVQQQRVKGESDYQSLLRSMYLFEYRDPLGRWFGISPALAETEKVLAWQQKK | not soluble
MGSDKIHHHHHHMTTLGVVYDKFLSPYFAGGGAVHAYEVTIRLKEHFKIVYYPSSPVLSWDKENVEKKAKELESQGIKVADEFYEILEEKRRIGRLKRFLFADKIAREFSKGFKVDADILYEPDHTSLDIFYLARDTKYGVTFHEPPFYNNSLRYFRRLVKFYGVNPYTGKGFHTRFLYNEYIKYLYKRLFKKVKKPTFLAGVSEAPLLESGLGGEVIKPGNAFNPSLLKFRNRGKEDYVVFWSRLNQDKGFHELPDILRIMEKRGGNKVRLILMGKFFDKYNERRFWSKVRKYDLRVDYKGFVKREELADIVSKAKVLIYPSHVDGFSLVALESLALGTPVVAYDIPAIKSVYGGLECVRIVNEFDKESMAENALKFYKMSEKEIEEIMNGDKLMEFLKLHSNWDNVANSVLKILKKYLI | not soluble
MSVRRLADDVYQPAEFSFTKENQIWVKNTIEKYPVGREQSAVIPLLMRAQEQDGWVTRAAIEHIAQILSMAYIRVLEIATFYTQFQLQPVGTKAHIQVCGTTPCMLRGSEELIKVCQKKIHHKPFVTNQDGSLSWEEVECLGACVNAPMVMIFKDTYEDLTAKRLEEIIDAFEAGKGAEIAVGPQNSRKSSEPISGLTSLIDEKEQKSLKSLKKKDKKEMGA | not soluble
CNFDCLYCELEGKKATDSMGEVAKVEEILEELREALPRYKPDVITVTANGEPTLYPALLPLIRGINALPHSAKTLILSNGSRFGEPEVQEALLEFDMVKFSLDAVSARAFKRVDRAHDSLSISQIIQGIKGFRSRYRGDLIAEVLFVKGVNDSPEEARAIARVLKEIAPSRVDLSTIDRPPAYKVEGVSPQKLEE | not soluble
MPRTVTHNPDSPNNDDVLAASEKWDACKPPYTSAHMKICVAAAKIILAASGVARCSKYEKENYLRIDFSKAGKVTFYAEFPKKMGLKGKKLGEWPELVIQLAREKALGMADGGLRAESVHAALEMYRDDPKPK | not soluble
MSLVEKPVVIKFGGTSVRYAFEEALELVAKLHENMKIIVVVSALAGVTDCLLRLAKGDKSALLEIDEIHEELSQELNVQLEHLIHQLKKTINSKSSFPSEKAFIDEIASFGERFSAKLFSEGLKILGITARPVDSKDVLFVKGEFGNAEVEFKKSAQGVDVLYRMLRRGIVPVVTGYYGNLNGFRATFGRGGSDYSATSIASLVNAKAVLIMSDVEGIYTADPKLVPPARLIHYISYKEAKTAAKLGMKVLHPRAIDPVEGKIPVILGKTRDLKFGTLISHESQGIPIVTHKLLENHAEISVVSVKTNIPLPYEVYEEGDLYFKIKTSKDQFLEVLRDVHRRVVENENLHSSHDGELWTWVEGHHHHHH | soluble
